According to patent publication US12491255 (ARO BIOTHERAPEUTICS, dated 2025):

T1: human EpCAM on COLO-205 cells (human, UniProt P16422 24-314)
T1 construct: whole, on cells; Endogenous EpCAM of the EpCAM-positive cell line COLO-205; also called epithelial cell adhesion molecule; Colo205 (EpCAM+)
T1 sequence (looked up): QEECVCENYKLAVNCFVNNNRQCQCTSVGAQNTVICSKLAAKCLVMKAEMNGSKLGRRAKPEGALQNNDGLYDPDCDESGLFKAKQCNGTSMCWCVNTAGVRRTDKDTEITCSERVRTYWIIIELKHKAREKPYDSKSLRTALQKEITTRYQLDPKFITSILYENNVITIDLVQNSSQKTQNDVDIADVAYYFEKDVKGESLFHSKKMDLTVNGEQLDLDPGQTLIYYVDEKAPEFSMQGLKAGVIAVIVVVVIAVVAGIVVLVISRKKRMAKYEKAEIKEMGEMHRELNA

B1: EpCAM binding FN3 domain clone 1807 (designed binder)
chain: MLPAPKNLVVSRVTEDSARLSWTAPDAAFDSFYIRYYEGSGYGEAIVLTVPGSERSYDLTGLKPGTEYYVYIGGVKGGSPSSPLSAIFTTG
notes: not shown: No entry is named H9
B2: EpCAM binding FN3 domain clone 1420 (designed binder)
chain: MLPAPKNLVVSRVTEDSARLSWEGYRNNAHFDSFLIQYQESEKVGEAIVLTVPGSERSYDLTGLKPGTEYTVSIYGVVAAVPRNYYSNPLSAIFTT
notes: as for B1
B3: EpCAM binding FN3 domain clone 1874 (designed binder)
chain: MLPAPKNLVVSRVTEDSARLSWTAPDAAFDSFKIGYWEWRKYGEAIELNVPGSERSYDLTGLKPGTEYRVLIYGVKGGAGSHPLRALFTT
notes: as for B1
B4: EpCAM FN3 domain-MMAF conjugate of clone 680 (designed binder)
chain: MLPAPKNLVVSRVTEDSARLSWTAPYAAFDSFAISYRERSREGEVIALTVPGSERSYDLTGLKPGTEYIVGILGVKGGRRSKPLRAQFTT
modifications: VC-MMAF (maleimide) on a cysteine; position of the cysteine not stated
B5: EpCAM binding FN3 domain clone 680 (designed binder)
chain: MLPAPKNLVVSRVTEDSARLSWTAPYAAFDSFAISYRERSREGEVIALTVPGSERSYDLTGLKPGTEYIVGILGVKGGRRSKPLRAQFTT
notes: as for B1
B6: EpCAM FN3 domain-MMAF conjugate of clone 639 (designed binder)
chain: MLPAPKNLVVSRVTEDSARLSWTAPDAAFDSFSISYRERSAWGEAIALVVPGSERSYDLTGLKPGIEYIVGIIGVKGGLRSNPLRADFTT
modifications: VC-MMAF (maleimide) on a cysteine; position of the cysteine not stated
B7: EpCAM binding FN3 domain clone 639 (designed binder)
chain: MLPAPKNLVVSRVTEDSARLSWTAPDAAFDSFSISYRERSAWGEAIALVVPGSERSYDLTGLKPGIEYIVGIIGVKGGLRSNPLRADFTT
notes: as for B1

Legend:
[1] = molecular target: T1, human EpCAM on COLO-205 cells; assay: flow cytometry, periplasmic extract of soluble Centyrin on COLO-205 (EpCAM+) cells
Description: (§1) Three rounds of CIS display panning on recombinant huEpCAM protein (R&D Systems) were performed using TCL23 as described previously. The output from Round 3 was amplified and cloned into phagemid vector containing truncated pIII. An additional 4 rounds of selection on recombinant protein human EpCAM and Colo 205 (positive cells) with negative selection on A375 (negative cells) was performed. After 4 rounds of selection on recombinant protein and Colo 205 cells, 96 individual clones were assayed for binding to Colo 205 cells by phage ELISA; EpCAM negative cells (A375) were used as a negative control. Phage binding was assessed using a labeled anti-M13 antibody. Clones that were positive by phage ELISA were subcloned into a bispecific Centyrin expression plasmid where the carboxy terminal domain was an albumin binding Centyrin (H9). Soluble Centyrins were expressed, recovered from periplasmic extracts and assessed for binding to Colo205 (EpCAM+) and A375 (EpCAM-) (Table 4).

[2] = molecular target: T1, human EpCAM on COLO-205 cells; assay: flow cytometry, ratio of the signal on COLO-205 (EpCAM+) to that on A375 (EpCAM-) cells
Description: as §1

[3] = molecular target: T1, human EpCAM on COLO-205 cells; assay: cell-based or functional assay

Row | Binder | Mean BL-1 P.E. COLO-205 [1] | COLO-205/A375 [2] | IC50 of EpCAM FN3 domain-MMAF conjugate molecules in COLO-205 Cells (cell viability, Cell TiterGlo, 72 hours) [3]
1 | B1 | 12900 | 4.4 | 
2 | B2 | 22600 | 25.8 | 
3 | B3 | 27100 | 12.1 | 
4 | B4 |  |  | 0.11 nM
5 | B5 | 10400 | 11.9 | 
6 | B6 |  |  | 2.2 nM
7 | B7 | 10100 | 11 | 
